Paper PMC9482650, “Quantitative fragmentomics allow affinity mapping of interactomes” (Nature Communications, 2022)

T1: MPDZ_5, O75970
T1 sequence (O75970 695-796, limits assumed, looked up): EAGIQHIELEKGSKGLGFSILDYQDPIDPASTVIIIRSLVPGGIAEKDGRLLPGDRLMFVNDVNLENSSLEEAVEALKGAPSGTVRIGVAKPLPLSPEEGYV

T2: NHERF3_1, Q5T2W1
T2 sequence (Q5T2W1 4-100, limits assumed, looked up): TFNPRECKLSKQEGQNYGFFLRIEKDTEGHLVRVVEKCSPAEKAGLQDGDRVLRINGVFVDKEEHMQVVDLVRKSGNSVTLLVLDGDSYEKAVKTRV

T3: MPP2, Q14168
T3 sequence (Q14168 180-250, limits assumed, looked up): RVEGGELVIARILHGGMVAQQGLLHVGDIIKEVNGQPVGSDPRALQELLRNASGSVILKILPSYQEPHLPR

T4: RHPN1, Q8TCX5
T4 sequence (Q8TCX5 508-602, limits assumed, looked up): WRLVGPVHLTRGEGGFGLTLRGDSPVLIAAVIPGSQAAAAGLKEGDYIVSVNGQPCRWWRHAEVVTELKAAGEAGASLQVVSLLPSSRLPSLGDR

T5: GRIP1_4, Q9Y3R0
T5 sequence (Q9Y3R0 467-571, limits assumed, looked up): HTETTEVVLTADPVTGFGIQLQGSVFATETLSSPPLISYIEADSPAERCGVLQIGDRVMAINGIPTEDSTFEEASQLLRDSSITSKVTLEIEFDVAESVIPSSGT

T6: SYNJ2BP, P57105
T6 sequence (P57105 8-110, limits assumed, looked up): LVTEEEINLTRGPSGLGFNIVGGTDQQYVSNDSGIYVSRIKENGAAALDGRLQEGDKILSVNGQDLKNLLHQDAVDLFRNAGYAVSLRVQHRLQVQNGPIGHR

T7: MPP6, Q9NZW5
T7 sequence (Q9NZW5 125-219, limits assumed, looked up): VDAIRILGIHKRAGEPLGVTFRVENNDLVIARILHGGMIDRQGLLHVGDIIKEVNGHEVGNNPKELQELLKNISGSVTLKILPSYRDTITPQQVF

T8: MPP7, Q5T2T1
T8 sequence (Q5T2T1 134-230, limits assumed, looked up): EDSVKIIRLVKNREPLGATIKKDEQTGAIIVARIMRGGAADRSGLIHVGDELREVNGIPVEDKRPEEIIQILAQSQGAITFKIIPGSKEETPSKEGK

T9: APBA2_2, Q99767
T9 sequence (Q99767 654-744, limits assumed, looked up): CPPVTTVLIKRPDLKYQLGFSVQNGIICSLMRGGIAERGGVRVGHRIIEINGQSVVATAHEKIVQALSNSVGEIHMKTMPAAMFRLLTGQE

T10: PDZD7_3, Q9H5P4
T10 sequence (Q9H5P4 857-944, limits assumed, looked up): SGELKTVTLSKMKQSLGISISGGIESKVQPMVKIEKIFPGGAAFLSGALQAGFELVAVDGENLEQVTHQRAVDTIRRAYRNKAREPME

T11: TJP3_3, O95049
T11 sequence (O95049 375-456, limits assumed, looked up): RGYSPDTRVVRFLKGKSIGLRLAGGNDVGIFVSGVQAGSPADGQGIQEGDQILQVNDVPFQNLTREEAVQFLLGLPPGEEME

T12: LRRC7, Q96NW7
T12 sequence (Q96NW7 1440-1537, limits assumed, looked up): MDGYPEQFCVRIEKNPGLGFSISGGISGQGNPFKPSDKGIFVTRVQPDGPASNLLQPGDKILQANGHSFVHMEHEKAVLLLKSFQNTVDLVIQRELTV

T13: PDZD2_2, O15018
T13 sequence (O15018 329-429, limits assumed, looked up): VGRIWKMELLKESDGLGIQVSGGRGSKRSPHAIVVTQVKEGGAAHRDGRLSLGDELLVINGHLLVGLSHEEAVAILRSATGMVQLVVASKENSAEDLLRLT


Tests used:
Assay in all cases: holdup assay
Parameters in all cases: key: below the threshold = too weak to quantify, mostly under pKd 3.1 to 4
Conditions in all cases: plain residues with an end cap or a label only (N-terminal biotin on a linker: ado-ado)
MPDZ_5, O75970 = target: T1, MPDZ_5, O75970
HTRA2, O43464 = target: HTRA2, O43464
Sequence of HTRA2, O43464 (O43464 355-458): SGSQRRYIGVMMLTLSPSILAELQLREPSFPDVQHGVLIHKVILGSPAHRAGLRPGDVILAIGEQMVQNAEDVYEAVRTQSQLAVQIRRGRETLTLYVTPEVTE

NHERF3_1, Q5T2W1 = target: T2, NHERF3_1, Q5T2W1
GRIP2_6, Q9C0E4 = target: GRIP2_6, Q9C0E4
Sequence of GRIP2_6, Q9C0E4 (Q9C0E4 648-740): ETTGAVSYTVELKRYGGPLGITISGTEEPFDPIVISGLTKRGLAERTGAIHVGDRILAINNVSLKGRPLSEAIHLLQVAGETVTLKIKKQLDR

GORASP1, Q9BQQ3 = target: GORASP1, Q9BQQ3
Sequence of GORASP1, Q9BQQ3 (Q9BQQ3 1-208): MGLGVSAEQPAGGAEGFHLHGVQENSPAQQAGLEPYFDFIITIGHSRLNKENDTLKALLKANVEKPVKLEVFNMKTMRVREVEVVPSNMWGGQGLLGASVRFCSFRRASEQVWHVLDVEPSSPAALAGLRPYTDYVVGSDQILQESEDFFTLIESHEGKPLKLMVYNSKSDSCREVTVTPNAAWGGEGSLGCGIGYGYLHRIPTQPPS

IL16_1, Q14005 = target: IL16_1, Q14005
Sequence of IL16_1, Q14005 (Q14005 210-306): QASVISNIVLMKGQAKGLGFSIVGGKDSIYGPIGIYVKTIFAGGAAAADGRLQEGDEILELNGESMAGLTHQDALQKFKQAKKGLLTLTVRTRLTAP

MAGI2_4, Q86UL8 = target: MAGI2_4, Q86UL8
Sequence of MAGI2_4, Q86UL8 (Q86UL8 772-865): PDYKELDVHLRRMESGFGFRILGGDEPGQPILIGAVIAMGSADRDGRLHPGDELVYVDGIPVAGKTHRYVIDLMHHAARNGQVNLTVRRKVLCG

MPP2, Q14168 = target: T3, MPP2, Q14168
DLG1_1, Q12959 = target: DLG1_1, Q12959
LNX1_2, Q8TBB1 = target: LNX1_2, Q8TBB1
Sequence of LNX1_2, Q8TBB1 (Q8TBB1 371-470): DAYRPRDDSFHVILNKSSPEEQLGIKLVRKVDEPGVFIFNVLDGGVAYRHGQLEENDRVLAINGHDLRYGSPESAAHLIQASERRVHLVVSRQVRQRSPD

RHPN1, Q8TCX5 = target: T4, RHPN1, Q8TCX5
GRIP1_4, Q9Y3R0 = target: T5, GRIP1_4, Q9Y3R0
SYNJ2BP, P57105 = target: T6, SYNJ2BP, P57105
MPP6, Q9NZW5 = target: T7, MPP6, Q9NZW5
SCRIB_2, Q14160 = target: SCRIB_2, Q14160
Sequence of SCRIB_2, Q14160 (Q14160 857-960): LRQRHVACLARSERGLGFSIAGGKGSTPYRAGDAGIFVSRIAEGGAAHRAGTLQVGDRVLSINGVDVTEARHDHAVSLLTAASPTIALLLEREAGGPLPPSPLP

MPP7, Q5T2T1 = target: T8, MPP7, Q5T2T1
APBA2_2, Q99767 = target: T9, APBA2_2, Q99767
PDZD7_3, Q9H5P4 = target: T10, PDZD7_3, Q9H5P4
TJP3_3, O95049 = target: T11, TJP3_3, O95049
LRRC7, Q96NW7 = target: T12, LRRC7, Q96NW7
LNX1_1, Q8TBB1 = target: LNX1_1, Q8TBB1
Sequence of LNX1_1, Q8TBB1 (Q8TBB1 261-371): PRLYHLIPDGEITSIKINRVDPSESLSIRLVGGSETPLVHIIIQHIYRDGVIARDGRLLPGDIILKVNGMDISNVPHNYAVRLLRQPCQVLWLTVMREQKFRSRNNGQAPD

PDZD2_2, O15018 = target: T13, PDZD2_2, O15018
DLG4_3, P78352 = target: DLG4_3, P78352
Sequence of DLG4_3, P78352 (P78352 306-403): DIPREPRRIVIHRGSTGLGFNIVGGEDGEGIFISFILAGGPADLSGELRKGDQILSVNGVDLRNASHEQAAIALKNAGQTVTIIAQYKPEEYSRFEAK

FRMPD2_3, Q68DX3 = target: FRMPD2_3, Q68DX3
Sequence of FRMPD2_3, Q68DX3 (Q68DX3 1073-1166): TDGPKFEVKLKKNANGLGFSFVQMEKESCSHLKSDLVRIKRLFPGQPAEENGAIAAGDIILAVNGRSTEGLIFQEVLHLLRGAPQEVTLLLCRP

MAGI1_2, Q96QZ7 = target: MAGI1_2, Q96QZ7
Sequence of MAGI1_2, Q96QZ7 (Q96QZ7 456-580): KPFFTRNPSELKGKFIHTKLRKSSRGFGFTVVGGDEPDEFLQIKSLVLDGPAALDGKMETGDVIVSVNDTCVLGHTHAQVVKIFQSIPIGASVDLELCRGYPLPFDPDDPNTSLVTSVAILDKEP

| Binder | pKd (MPDZ_5, O75970) | pKd (HTRA2, O43464) | pKd (NHERF3_1, Q5T2W1) | pKd (GRIP2_6, Q9C0E4) | pKd (GORASP1, Q9BQQ3) | pKd (IL16_1, Q14005) | pKd (MAGI2_4, Q86UL8) | pKd (MPP2, Q14168) | pKd (DLG1_1, Q12959) | pKd (LNX1_2, Q8TBB1) | pKd (RHPN1, Q8TCX5) | pKd (GRIP1_4, Q9Y3R0) | pKd (SYNJ2BP, P57105) | pKd (MPP6, Q9NZW5) | pKd (SCRIB_2, Q14160) | pKd (MPP7, Q5T2T1) | pKd (APBA2_2, Q99767) | pKd (PDZD7_3, Q9H5P4) | pKd (TJP3_3, O95049) | pKd (LRRC7, Q96NW7) | also measured |
| --- | --- | --- | --- | --- | --- | --- | --- | --- | --- | --- | --- | --- | --- | --- | --- | --- | --- | --- | --- | --- | --- |
| RFQQRMQTHV [KIRREL1, Q96J84] | below the threshold | below the threshold | 5.03 | 3.54 | below the threshold | below the threshold | 3.76 | below the threshold | 4.17 | below the threshold | 3.91 | below the threshold | 4.61 | below the threshold | 4.1 | below the threshold | below the threshold | 4.5 | below the threshold | below the threshold | pKd (LNX1_1, Q8TBB1): below the threshold; pKd (PDZD2_2, O15018): 4.4; pKd (DLG4_3, P78352): 4.4; pKd (FRMPD2_3, Q68DX3): below the threshold; pKd (MAGI1_2, Q96QZ7): 5.41 |
| EPQYQPGENL [SRC, P12931] | below the threshold | 3.53 | 3.82 | below the threshold | below the threshold | below the threshold | below the threshold | below the threshold | below the threshold | below the threshold | below the threshold | below the threshold | below the threshold | below the threshold | below the threshold | below the threshold | below the threshold | below the threshold | below the threshold | below the threshold | pKd (LNX1_1, Q8TBB1): below the threshold; pKd (PDZD2_2, O15018): below the threshold; pKd (DLG4_3, P78352): below the threshold; pKd (FRMPD2_3, Q68DX3): below the threshold; pKd (MAGI1_2, Q96QZ7): below the threshold |
| REEPDHSTEV [CCRL2, O00421] | below the threshold | 3.54 | 4.57 | 3.54 | below the threshold | 3.59 | 3.95 | below the threshold | 4.49 | 3.65 | 3.83 | below the threshold | 5.14 | below the threshold | 4.32 | below the threshold | below the threshold | 4.31 | below the threshold | below the threshold | pKd (LNX1_1, Q8TBB1): 4.09; pKd (PDZD2_2, O15018): 5.32; pKd (DLG4_3, P78352): below the threshold; pKd (FRMPD2_3, Q68DX3): below the threshold; pKd (MAGI1_2, Q96QZ7): below the threshold |
| QSYPSKHDYV [CLDN18, P56856] | below the threshold | 3.71 | 4.26 | below the threshold | 3.74 | below the threshold | 3.68 | below the threshold | below the threshold | 3.69 | below the threshold | below the threshold | below the threshold | below the threshold | below the threshold | below the threshold | 3.62 | 4.08 | 4.02 | below the threshold | pKd (LNX1_1, Q8TBB1): 3.73; pKd (PDZD2_2, O15018): 4.86; pKd (DLG4_3, P78352): below the threshold; pKd (FRMPD2_3, Q68DX3): below the threshold; pKd (MAGI1_2, Q96QZ7): below the threshold |
